Assay results published in patent publication US8067005.

Molecular target: T1, human TNF (human, UniProt P01375 77-233)
T1 construct: Passed over captured antibody in solution; also called human TNFα
Assay: SPR (BIAcore); antibody captured by immobilized anti-Fab′ antibody, human TNF passed over

T1 sequence (P01375 77-233 limits assumed): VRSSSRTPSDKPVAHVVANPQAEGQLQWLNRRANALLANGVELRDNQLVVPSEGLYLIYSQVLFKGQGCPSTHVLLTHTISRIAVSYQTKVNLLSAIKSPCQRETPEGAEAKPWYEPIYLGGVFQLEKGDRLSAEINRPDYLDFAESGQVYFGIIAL

B1: hTNF40 IgG (antibody, V domains shown)
VH: QIQLVQSGPELKKPGETVKISCKASGYVFTDYGMNWVKQAPGKAFKWMGWINTYIGEPIYVDDFKGRFAFSLETSASTAFLQINNLKNEDTATYFCARGYRSYAMDYWGQGTSVTVSS
VL: DIVMTQSQKFMSTSVGDRVSVTCKATQNVGTNVAWYQQKPGQSPKALIYSASFLYSGVPYRFTGSGSGTDFTLTISTVQSEDLAEYFCQQYNIYPLTFGAGTKLELKR
With B1 the Kd was 179 pM.
